Tested on: γδ T cells
Test: Identification of BTN2A1 agonistic antibodies: CD25 and interferon γ of expanded γδ T cells
Format: cell-based, human
Conditions: 10 μg/ml antibody overnight, vs isotype control BM4
Procedure: In some experiments γδ T cells were enriched by MACS using PE-Cy7-conjugated anti-γδTCR followed by anti-phycoerythrin-mediated magnetic bead purification (Miltenyi Biotec). After enrichment CD3+Vδ2+ γδ T cells were further purified by sorting using an Aria III (BD). Enriched γδ T cells were stimulated in vitro for 48 h with plate-bound anti-CD3ε (OKT3, 10 ug/ml, Bio-X-Cell), soluble anti-CD28 (CD28.2, 1 ug/ml, BD Pharmingen), phytohemagglutinin (0.5 μg/ml, Sigma), IL-15 (50 ng/ml), and recombinant human IL-2 (100 U/ml, PeproTech), followed by maintenance with IL-2 and IL-15 for 14-21 d. Cells were cultured in complete medium consisting of a 50:50 (v/v) mixture of RPMI-1640 and AIM-V (Invitrogen) supplemented with 10% (v/v) FCS (JRH Biosciences), penicillin (100 U/ml), streptomycin (100 μg/ml), Glutamax (2 mM), sodium pyruvate (1 mM), nonessential amino acids (0.1 mM), and HEPES buffer (15 mM), pH 7.2-7.5 (all from Invitrogen Life Technologies), plus 50 μM 2-mercaptoethanol (Sigma-Aldrich).
The inventors screened the panel of antibodies specific for BTN2A1, as described above, to identify those able to agonise BTN2A1. The inventors assessed the ability of anti-BTN2A1 antibodies to activate γδ T cells. The inventors assessed upregulation of CD25 on the surface of previously expanded γδ T cells following culturing the cells with 10 μg/ml anti-BTN2A1 antibodies or isotype control antibody (BM4) overnight.
The inventors additionally measured levels of interferon γ secreted by γδ T cells following culture in the presence of 10 μg/ml anti-BTN2A1 antibodies or isotype control antibody (BM4) overnight. Interferon γ secretion is another indicator of TCR-dependent activation.

B1: antibody 259: agonistic anti-BTN2A1 antibody; VL SEQ ID NO: 156, VH SEQ ID NO: 160 (antibody, V domains shown)
VH: EVQLLESGGGLVQPGGSLRLSCAASGFTFSSYAMQWVRQAPGKGLEWVSRIGPSGGGTMYADSVKGRFTISRDNSKNTLYLQMNSLRAEDMAVYYCARDLGGLSVLFDYWGQGTLVTVSS
VL: QSELTQPPSASETPGQRVTISCSGSSSNIGSNTVSWFQQLPGSAPRLLIYNDHRRPSGVPDRFSGSKSGTSASLVISGLQSQDEADYYCSAWDDSLNGVVFGGGTKLTVL
modifications: amino acid sequence of the VH of antibody 259; amino acid sequence of the VL of antibody 259
- level of secreted interferon γ: increase the level of secreted interferon γ
- percentage of γδ T cells expressing CD25: increase the percentage of γδ T cells expressing CD25
